Measurements taken from PMC9109600.

Substrate: Nc1nc2nc[nH]c2c(=O)[nH]1
Assay: purified protein
Settings: zinc active site

B1: Guanine deaminase (GDA) (Homo sapiens) (protein)
chain: MCAAQMPPLAHIFRGTFVHSTWTCPMEVLRDHLLGVSDSGKIVFLEEASQQEKLAKEWCFKPCEIRELSHHEFFMPGLVDTHIHASQYSFAGSSIDLPLLEWLTKYTFPAEHRFQNIDFAEEVYTRVVRRTLKNGTTTACYFATIHTDSSLLLADITDKFGQRAFVGKVCMDLNDTFPEYKETTEESIKETERFVSEMLQKNYSRVKPIVTPRFSLSCSETLMGELGNIAKTRDLHIQSHISENRDEVEAVKNLYPSYKNYTSVYDKNNLLTNKTVMAHGCYLSAEELNVFHERGASIAHCPNSNLSLSSGFLNVLEVLKHEVKIGLGTDVAGGYSYSMLDAIRRAVMVSNILLINKVNEKSLTLKEVFRLATLGGSQALGLDGEIGNFEVGKEFDAILINPKASDSPIDLFYGDFFGDISEAVIQKFLYLGDDRNIEEVYVGGKQVVPFSSSV
  Km: 12 ± 9 µM
